What was measured:
Type in all cases: binding
PLCγ1 cSH2 = target: T1, PLCγ1 cSH2 (Homo sapiens, UniProt P19174); assay: 1H,15N HSQC NMR titration, PLCγ1 cSH2; conditions: 1H-15N HSQC titration, 600 MHz, 298 K, 100 μM protein, 100 mM MES, 150 mM NaCl, 3 mM TCEP, pH 6.5
T1 construct: cSH2 (668–790): 166 ± 30 nM; thioredoxin (pETM22 fusion, purified on Ni column) (N, cleaved yes); made in house; host or cells: E. coli BL21(DE3)
Description: Fig 5 Affinity of pK15 peptide for PLCγ1 tSH2 or individual SH2 domains. (A) Binding curves of several PLCγ1 fragments in the presence of 200 nM 5,6-FAM-labelled pK15 (12mer). All measurements were performed in triplicate. […] (B and C) Overlay of ^1H,^15N HSQC NMR spectra of nSH2 (B) and cSH2 (C) alone (in yellow) and in the presence of 2 molar equivalents of the pK15 12mer peptide (blue), measured with a 600 MHz spectrometer at 298 K. The protein concentration was 100 μM and the buffer contained 100 mM MES, 150 mM NaCl, 3 mM TCEP, pH 6.5. (D and E) Excerpts from ^1H-^15N HSQC spectra of nSH2 (D) and cSH2 (E) upon addition of increasing concentrations of the pK15 12mer peptide.
Next, we used Nuclear Magnetic Resonance (NMR) spectroscopy to further compare the interaction of the phosphorylated pK15 12mer to the isolated nSH2 and cSH2 domains (Fig 5B–5E). We recorded ^1H-^15N HSQC spectra of each of the two domains in the presence of increasing concentrations of the pK15 peptide. […] In light of this, it is conceivable that the preference of pK15 CT for cSH2 in vivo may be determined by kinetic rather than thermodynamic factors.
NMR experiments were recorded at 298 K on a 600-MHz Bruker Avance III-HD spectrometer equipped with an inverse HCN cryogenic probehead (nitrogen-cooled) and running Topspin 3.2 software. […] NMR data were processed in Topspin and analysed in CcpNmr Analysis v2.4 [74].

PLCγ1 SA R586L or R694L = assay: GST-pulldown, PLCγ1 SA R586L or R694L; conditions: phosphorylated, HEK 293T, versus WT
Description: (§1) Fig 3 Contribution of individual PLCγ1 SH2 domains to the interaction with phosphorylated pK15. The pK15 CT fused to GST, its Y^481F mutant, or GST alone were bound to glutathione beads, phosphorylated in vitro (+) or left unphosphorylated (-), and a GST pulldown was performed 32h after transfection into HEK-293T cells of expression vectors for S-tagged full-length PLCγ1 (FL) (A) or PLCγ1 SA (B) containing the indicated mutations. (C) pK15 CT WT, its Y^481F mutant or GST were bound to glutathione beads, phosphorylated in vitro (+) or left unphosphorylated (-), and used for a GST pulldown assay 32h after transfecting HEK 293T cells with expression vectors for S-tagged individual PLCγ1 nSH2 or cSH2 domains. […]
(§2) HEK293T cells were washed once with cold PBS 30 hours after transfection, lysed in IP buffer (50 mM Tris pH7.6, 60 mM NaCl, 6.25 mM EDTA, 1% (v/v) glycerol, 0.04% (v/v) NP-40) on ice for 30 minutes, sonicated shortly and cleared by centrifugation for 10 minutes at 20.000g, 4°C. […] Beads were then washed 5 times in 500 μl IP buffer (or for purified proteins IP buffer with 200 mM NaCl), suspended in 10 μl of 5x Laemmli sample buffer (60 mM Tris pH6.8, 24% (v/v) glycerol, 2% (v/v) SDS, 5% (v/v) β-mercaptoethanol, 0.01% Bromphenol Blue) and analysed by western blot.

PLCγ1 SA R586L+R694L = assay: GST-pulldown, PLCγ1 SA double mutant; conditions: phosphorylated; HEK 293T
Description: as §1, §2

T1 sequence (P19174 668-790): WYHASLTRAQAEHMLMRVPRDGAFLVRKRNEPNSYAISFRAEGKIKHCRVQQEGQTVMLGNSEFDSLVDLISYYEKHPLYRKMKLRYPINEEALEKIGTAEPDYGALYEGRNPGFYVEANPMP

| Molecule | NMR exchange regime (PLCγ1 cSH2) | binding of mutants (GST-pulldown) (PLCγ1 SA R586L or R694L) | binding of double mutant (GST-pulldown) (PLCγ1 SA R586L+R694L) |
| --- | --- | --- | --- |
| DDLpYEEVLFPRN [pK15 12mer, phosphorylated peptide representing the last 12 amino acids of pK15 CT (DDLp…)] | fast exchange regime | – | – |
| pK15 CT^WT: pK15 cytoplasmic tail fused to GST at its N-terminal end, phosphorylated in vitro by Src (protein, tyrosine-phosphorylated in vitro by Src; sites not stated for this construct; left off: GST, N-terminal, kept) SQLLNEVELQEVNRDPPNVFGYASILVSGAEESREPSPQPDQSGMSILRVDGGSAFRIDTAQAATQPTDDLYEEVLFPRN | – | strongly reduced binding | completely eliminated the binding |
